Assay results published in patent US20060257938A1, “Method of screening for drugs that block ligand binding to a lipid binding protein” (priority 2005, published 2006).

What was measured:
Format in all cases: binding
[1] = Probe fluorescence ratio response to linolenic acid relative to ADIFAB2; conditions: response relative to ADIFAB2
In short: (§1)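 Fluorescently labeled rat intestinal FABP variants were read at two emission wavelengths, near the unbound maximum (about 420 to 480 nm) and the FFA-bound maximum (about 495 to 580 nm). R = Fλ1/Fλ2 after subtracting probe-free intensity; ΔR = R+agent − R0, normalized to ADIFAB2 (rI-FABP-L72A).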

[2] = Probe fluorescence ratio response to palmitic acid relative to ADIFAB2; conditions: response relative to ADIFAB2
In short: as §1

[3] = Probe fluorescence ratio response to arachidonic acid relative to ADIFAB2; conditions: arachidonic acid; response relative to ADIFAB2
In short: as §1

[4] = Probe fluorescence ratio response to linoleic acid relative to ADIFAB2; conditions: response relative to ADIFAB2
In short: as §1

[5] = Probe fluorescence ratio response to oleic acid relative to ADIFAB2; conditions: response relative to ADIFAB2
In short: as §1

Molecule | DR/DR LNA [1] | DR/DR PA [2] | DR/DR AA [3] | DR/DR LA [4] | DR/DR OA [5]
14M 72M 117A (protein, listed as Rattus norvegicus, PEPTIDE (1)...(131) wild-type rat intestinal fatty acid binding protein) AFDGTWKVDRNENMEKFMEKMGINVVKRKLGAHDNLKLTITQEGNKFTVKESSNFRNIDVVFELGVDFAYSMADGTELTGTWTMEGNKLVGKFKRVDNGKELIAVREISGNELIQTATYEGVEAKRIFKKE | 2.031 | 0.870 | 1.649 | 1.956 | 1.054
36V, 72A (protein, listed as Rattus norvegicus, PEPTIDE (1)...(131) wild-type rat intestinal fatty acid binding protein) AFDGTWKVDRNENYEKFMEKMGINVVKRKLGAHDNVKLTITQEGNKFTVKESSNFRNIDVVFELGVDFAYSAADGTELTGTWTMEGNKLVGKFKRVDNGKELIAVREISGNELIQTYTYEGVEAKRIFKKE | 1.082 | 0.713 | 1.026 | 1.062 | 0.869
38Q, 72A (protein, listed as Rattus norvegicus, PEPTIDE (1)...(131) wild-type rat intestinal fatty acid binding protein) AFDGTWKVDRNENYEKFMEKMGINVVKRKLGAHDNLKQTITQEGNKFTVKESSNFRNIDVVFELGVDFAYSAADGTELTGTWTMEGNKLVGKFKRVDNGKELIAVREISGNELIQTYTYEGVEAKRIFKKE | 1.986 | 1.551 | 1.976 | 1.936 | 1.842
36I, 72A (protein, listed as Rattus norvegicus, PEPTIDE (1)...(131) wild-type rat intestinal fatty acid binding protein) AFDGTWKVDRNENYEKFMEKMGINVVKRKLGAHDNIKLTITQEGNKFTVKESSNFRNIDVVFELGVDFAYSAADGTELTGTWTMEGNKLVGKFKRVDNGKELIAVREISGNELIQTYTYEGVEAKRIFKKE | 1.004 | 0.815 | 0.812 | 0.884 | 0.773
38S, 72A (protein, listed as Rattus norvegicus, PEPTIDE (1)...(131) wild-type rat intestinal fatty acid binding protein) AFDGTWKVDRNENYEKFMEKMGINVVKRKLGAHDNLKSTITQEGNKFTVKESSNFRNIDVVFELGVDFAYSAADGTELTGTWTMEGNKLVGKFKRVDNGKELIAVREISGNELIQTYTYEGVEAKRIFKKE | 1.295 | 0.724 | 1.175 | 1.286 | 1.235
31V, 72A (protein, listed as Rattus norvegicus, PEPTIDE (1)...(131) wild-type rat intestinal fatty acid binding protein) AFDGTWKVDRNENYEKFMEKMGINVVKRKLVAHDNLKLTITQEGNKFTVKESSNFRNIDVVFELGVDFAYSAADGTELTGTWTMEGNKLVGKFKRVDNGKELIAVREISGNELIQTYTYEGVEAKRIFKKE | 0.776 | 0.206 | 0.395 | 0.384 | 0.081
31Q, 72A (protein, listed as Rattus norvegicus, PEPTIDE (1)...(131) wild-type rat intestinal fatty acid binding protein) AFDGTWKVDRNENYEKFMEKMGINVVKRKLQAHDNLKLTITQEGNKFTVKESSNFRNIDVVFELGVDFAYSAADGTELTGTWTMEGNKLVGKFKRVDNGKELIAVREISGNELIQTYTYEGVEAKRIFKKE | 1.494 | 1.039 | 1.024 | 1.465 | 1.313
23W, 72A (protein, listed as Rattus norvegicus, PEPTIDE (1)...(131) wild-type rat intestinal fatty acid binding protein) AFDGTWKVDRNENYEKFMEKMGWNVVKRKLGAHDNLKLTITQEGNKFTVKESSNFRNIDVVFELGVDFAYSAADGTELTGTWTMEGNKLVGKFKRVDNGKELIAVREISGNELIQTYTYEGVEAKRIFKKE | 0.956 | 0.492 | 0.618 | 0.794 | 0.448
38T, 72A (protein, listed as Rattus norvegicus, PEPTIDE (1)...(131) wild-type rat intestinal fatty acid binding protein) AFDGTWKVDRNENYEKFMEKMGINVVKRKLGAHDNLKTTITQEGNKFTVKESSNFRNIDVVFELGVDFAYSAADGTELTGTWTMEGNKLVGKFKRVDNGKELIAVREISGNELIQTYTYEGVEAKRIFKKE | 1.639 | 1.022 | 1.598 | 1.577 | 1.547
14W 72M 117A (protein, listed as Rattus norvegicus, PEPTIDE (1)...(131) wild-type rat intestinal fatty acid binding protein) AFDGTWKVDRNENWEKFMEKMGINVVKRKLGAHDNLKLTITQEGNKFTVKESSNFRNIDVVFELGVDFAYSMADGTELTGTWTMEGNKLVGKFKRVDNGKELIAVREISGNELIQTATYEGVEAKRIFKKE | 1.286 | 0.515 | 0.945 | 1.009 | 0.706
38M, 72A (protein, listed as Rattus norvegicus, PEPTIDE (1)...(131) wild-type rat intestinal fatty acid binding protein) AFDGTWKVDRNENYEKFMEKMGINVVKRKLGAHDNLKMTITQEGNKFTVKESSNFRNIDVVFELGVDFAYSAADGTELTGTWTMEGNKLVGKFKRVDNGKELIAVREISGNELIQTYTYEGVEAKRIFKKE | 1.697 | 1.131 | 1.850 | 1.805 | 1.630
31I, 72A (protein, listed as Rattus norvegicus, PEPTIDE (1)...(131) wild-type rat intestinal fatty acid binding protein) AFDGTWKVDRNENYEKFMEKMGINVVKRKLIAHDNLKLTITQEGNKFTVKESSNFRNIDVVFELGVDFAYSAADGTELTGTWTMEGNKLVGKFKRVDNGKELIAVREISGNELIQTYTYEGVEAKRIFKKE | 0.413 | 0.091 | 0.303 | 0.168 | −0.213
62P, 72A (protein, listed as Rattus norvegicus, PEPTIDE (1)...(131) wild-type rat intestinal fatty acid binding protein) AFDGTWKVDRNENYEKFMEKMGINVVKRKLGAHDNLKLTITQEGNKFTVKESSNFRNIDVVPELGVDFAYSAADGTELTGTWTMEGNKLVGKFKRVDNGKELIAVREISGNELIQTYTYEGVEAKRIFKKE | 1.581 | 1.247 | 1.548 | 1.572 | 1.448
